Reference: the nanobody polyreactivity screen of Harvey et al. (2022)

Assay: yeast display, Sf9 membrane polyspecificity reagent, FACS + sequencing; frameworks hold sequencing errors
Procedure, shortened: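 A synthetic nanobody library was expressed on Saccharomyces cerevisiae BJ5465 by galactose induction for 36–48 hours. The library was stained for 1 hour at 4 °C with 10% biotinylated, detergent-solubilized Sf9 membrane reagent and enriched with streptavidin microbeads before FACS. Low and high (top ~1%) gates were set on anti-HA fluorescence for expression and streptavidin fluorescence for reagent binding, and each polyreactivity label reflects the gate of origin.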

Sequence | polyreactivity (PSR sort gate)
QVQLEESGGGLFQAGGSLRLICAATGSIFRVYVMGWYIQAPGKERELVAAITSSDGTTYYADSVKGRFTISRDNAKNTVYLQMNSLKPEDTALYYCNAEFYSPPVVGPRYWYPGFYWGQGTQVTVSS | low polyreactivity
QVQLEESGGGLFQAGGSLRLSCAASGSTFADNAMGWYRQATGKEAEFVAGISTNGGSTYYADSVKGRFTISRDNAKNTVYLQMNSLKPEDTAVYYCNADSIDPFLYDYWGQGTQVTVSS | low polyreactivity
QVQLEESGGGLRQAGGRLRLSCAASGRTFYVNAKGWYRQAPGKERELVAAISWSGGSTYYADSVKGRFTITRDNAKNTVYLQMNSLKPEDTAVYYCAAEDIEVYEYWGQGTQVTVSS | low polyreactivity
QVQLEESGGGLVHAGGSLRLSCAASGFTFYSYAMGWYRQAPGKERELVAAITQSGGSTYYADSVKGRFTISRDNAKNTVYFQMNSLKPEDTAVYYCAAGRRSSWRYYLWYDYWGQGTQVTVSS | low polyreactivity
QVQLEESGGGLVHAGGSLRLTCDAYGYIFALNPIVWNRQAPGNESEVVAAINDSGDSTYYADSLKGRFTISRDNSKNTVYLQMNSLNPEDSAVYYCAADTRYRYGAFPYYEYDNWGQGTQVTVSS | low polyreactivity
QVQLEESGGGLVKARGSLRLSCAASGRTFNFYYMGWYRQAPGKERELVAAISSSGGSTYYADSVKGRFTISRDTAKYTVYLQMISLIPEDTAVYYCAKGPLYSLCFQHDAPYRYGYWGQATQVTVSS | low polyreactivity
QVQLEESGGGLVQAEGSLRLICAASGSTFVYAMGWYRQSPGKERELVAAISYSGGSTYYADSVKGRFTISRDNAKTTVYLQMNSLKPEDTAVYYCAAYLVISAQRYYYWGQGTQVTVSS | high polyreactivity
QVQLEESGGGLVQAGCSLRLSCAASGSTFVRYAMGWYRQAPGKERELVAAISWSGASTYYADSVKGRFTISRDNAKNTVYLQMNSLKPEDTAVYYCAARSRWYDAAGYQKYYYWGQGSQVTVSS | high polyreactivity
QVQLEESGGGLVQAGGRLRLSCAASGIIYDFYAMGWYRQAPGKERELVAAITSSGGSTYYADSVKGRFTISRDNAKKTVYLQMNSLKPEDTAVDYCAAEYTIYGTDQRYYYWGQGTQVTVSS | low polyreactivity
QVQLEESGGGLVQAGGRLRLSCAASGRIIYGYAMGWYRQAPGKERELVAAITATYYADSVKGRFTISRDNAKNTVYLQMNSLKPEDTAVYYCYAYLSPKQPLSPPDPTFEGGYWGQGTQVTVSS | low polyreactivity
QVQLEESGGGLVQAGGRLRLSCAASGRIYTKYAMGWYRQAPGKERELVAAISGSGGNTYYADSVKGRFTISRDNAKNTVYLQMNSLKPEDTAVYYCNRAKNAYLMDYWGQGTQVTVSS | high polyreactivity
QVQLEESGGGLVQAGGRLRLSCAASGSIFGFYAMGWYRQAPGKERELVASITISGGSTYYADSVKGRFTISRDNAKNTVYLQMNSLKPEDTAVYYGAARRYWDYNYWGQGTQVTVSS | low polyreactivity
QVQLEESGGGLVQAGGRLRLSCAASGSIWSYAMGWYRQAPGKERELVAAISSTGGSTYYADSVKGRFTISRDNAKNTVYLQMNSLKPEDTAVYYCAKGRRYDQSHYNYWGQGTQVNVSS | high polyreactivity
QVQLEESGGGLVQAGGSHRLSCAASGPTFRRNVMGWSRQAPGKEREFVAAITWSGGNTYYADSVKGRITISRDNAKYTVFLQMYSLKREDTAVYYCNARSAIWGWGYGSYDYWGLGTQVTVSS | low polyreactivity
QVQLEESGGGLVQAGGSIRLSCAASGSTLVGNAMGWYRQAPGKERELVATIDLSDDITYYADSVKGRFTSSRDNAKNTFYLQMNSLKPEDTAVYYCSAEYYLYSTYTVSYGKYDYWGQGTQGTVSS | high polyreactivity
QVQLEESGGGLVQAGGSLRIICAASGRTFQLYAMGWYRQAPGKERELVAAITWSSGRTSYADSVKGRFTISRDNAKNTVYLQMNSLKPEDTAVYYCAADVWGGLLPGYDYWGQGTQVTVSS | high polyreactivity
QVQLEESGGGLVQAGGSLRISCAASGSIVRYKAMGWYRQAHGKERELVAAISSRGGSTYYADSVKGRFTISRDNAKNTVYLQMNSLKPEDTAVYYCNVRWTYKYDYWGQGTQVTVSS | high polyreactivity
QVQLEESGGGLVQAGGSLRLCCAASGFTFDYNAKGWYRQPPGKLRDLVAVISSSGSRTYYADSVKGRFTISRDYAKNTVYLQMNSLKPEDSAVYYWAGARIGTSDYWGQGTQVTESS | high polyreactivity
QVQLEESGGGLVQAGGSLRLCCAASGRTFYYAMGWYRQATGKDRYADSVKGRFTISRDNAKNTVYLQMNSLKPDDTSVYYCAAKVTEPPSLDDSDYWGQGTQVTVSS | low polyreactivity
QVQLEESGGGLVQAGGSLRLICAASGGTISKYAMGWYRQAPGTEMELVAAITYSSGSTYYADSVKGRFTISRDNAKNTVYLQMNSLKPEDTAVYYCAARSGLYWWRFDYWGQGTLVTVSS | high polyreactivity
QVQLEESGGGLVQAGGSLRLICAASGRIFGVNAMGWYRQAHGKERELVAVISSGGSTYYADSVKGRFTISRDNAKNTVYLQMNSLKPEDTAVYYCNAVVGSWFPYNLSDYWGEGTQVTVSS | low polyreactivity
QVQLEESGGGLVQAGGSLRLICAASGRTFSGNTMGWYIQAPGKERELVAAITGRGGSTYYADSEKGRFTISRDNEKNTVYLQMNSLKPVDTAVYYCAALRYTFAGRFDYWGQGTQVTVSS | high polyreactivity

Sequence | polyreactivity (PSR sort gate)
QVQLEESGGGLVQAGGSLRLICAASGRTFVYYAMGWYRQAPGKERELVAAISTGGSTNYADSVKGRFTISRDNAKNTVYLQMNSLKTEDTAVYYCAAQYYISISKYDYWGQGTQVTVSS | low polyreactivity
QVQLEESGGGLVQAGGSLRLICADSGFTFVYYARGWYRQAPGKERELVATISGNGGRTYYADSVKGRFTISRDNAKNTVYLQMNSLKPEDTAVYYCNADDPYLYYDSYDYWGQGTQVTVSS | low polyreactivity
QVQLEESGGGLVQAGGSLRLIWAASGFIFRTYTMGWYRQAPGKERELVATIDSSGGSTYYADSVKGRFTISRDNAKNTVYLQMNSLKPEDTAVYYCNADLRELSPWYWYSGEMDYWGQGTQVTVSS | low polyreactivity
QVQLEESGGGLVQAGGSLRLSCAASGFICKRYARGWYRQAPGKERELVAAITTSGGRTYYADSVKGRFTISRDNAKNTVYLQMNSLIPEDTAVYYCAAAQPGTNAYRVGSWGQGTQVTVSS | high polyreactivity
QVQLEESGGGLVQAGGSLRLSCAASGFIFAQYAMGWYRKAPRKDRELVAAISWSGGSTYYADSVKGRFTISRDNAKNTVYLQMNSLKPEDTAVYYCAALFRNKSRYRYGYWGQGTQVTVSS | high polyreactivity
QVQLEESGGGLVQAGGSLRLSCAASGFIFPYYAMGWYRQAHGQERELVAAISRSGGRTYYADSVKGRFTISRDNAKNTVYLQMNSLKPEDTAVYYCNAPFQSEPFDYWGQGTQVTVSS | high polyreactivity
QVQLEESGGGLVQAGGSLRLSCAASGFIFRYYAMGWYRQAPGKERELVAAISWSGGSTYYADSVKGRFTISRDNAKNTVYLQMNSLKPEETAVDYGAADRYAILFYAEDYWGQGTQVTVSS | low polyreactivity
QVQLEESGGGLVQAGGSLRLSCAASGFIFVANAMGWYIQAPWKERELVAAISRRGGSTYYADSVKGRFTISRDNAKNTVYLQMNSLKPEDTAVYYCNAYRRGLSGYGYWGQGTQVTVSS | high polyreactivity
QVQLEESGGGLVQAGGSLRLSCAASGFIFWANAMGWYRQAPGKERELVAAIRYSGGRTYYADSVKGRFTSSRDTAKNTFFLLMNSLIPEDTAVYYCAKEYKNYGGFVVEYDYWGQGTQVNVSS | low polyreactivity
QVQLEESGGGLVQAGGSLRLSCAASGFILCDYAMGWYRQATGKERELVAGINYRGGSTHYADSVKGRFTISRDIAKNTVYLQMNSLKPEDTAVYYCSKRRQSYPYKTSTWYSHYSWGQGTQVTVSS | high polyreactivity
QVQLEESGGGLVQAGGSLRLSCAASGFILSGNTMGWYRPAPGKERELVAGITYTGGSTYYADSVKGRFTISRDNAKNTVYLQMNSLKPEDTAVYYCAVDVAGGEGMDYWGHGTQVTVSS | low polyreactivity
QVQLEESGGGLVQAGGSLRLSCAASGFIYAHYAMGWYRQAPGKERELVAAISSRGGSTYYADSVKGRFTISRDYAKNPVYLQINSLKPEDTAVYYCAKARHRPARGYEYWGLGTQVTVSS | high polyreactivity
QVQLEESGGGLVQAGGSLRLSCAASGFTFAYYAMGWYSQAPGKERELVAAISRSGGRTNYADSVKGRFTISRDNAKNTVYLQMNSLKPEETAVYYCNKQQTPRYWWSPYGGYDYWGQGTQGTVSS | high polyreactivity
QVQLEESGGGLVQAGGSLRLSCAASGFTFRAYAMGWYRQAPGKERELVAANTYSGDRTYYADSVKGRFTITRDNAKKTVYLQMNSLKPEDTAVYYCAAYGAKVNRPGYYYWGQGTQVTVSS | high polyreactivity
QVQLEESGGGLVQAGGSLRLSCAASGGIFGWYTMGWNRQAPGKERELVAAINFSGSRTYYADSVKGRFTISRHNAKNTVYLQMNSLKPEDTAVYYCNAVYHQFRVEYWGQGTQVTVSS | high polyreactivity
QVQLEESGGGLVQAGGSLRLSCAASGGIFPAYAMGWYRQAPGKERELVASISANGGRTYYADSVKGRFTISRDNAKNTVYLQMNSLKPEDTAVYYCNASSLSGSWRFYYWGQGTQVTVSS | high polyreactivity
QVQLEESGGGLVQAGGSLRLSCAASGITFEAYAMGWYRQAPGKERELVAAIRSSGTSTYYADSVMGRFTISRDNAKNTVYLQMNSLKPEDTAVYYCNRARSSSRYDYWGQGTQVTVSS | low polyreactivity
QVQLEESGGGLVQAGGSLRLSCAASGITFVTYAMGWYRQAPGKERELVAAISRSGGRTYYADSVKGRFTISRDNAKNTVYLQMNSLKPEDTAVYYCAAERKNKYDYWGQGTQVTVSS | high polyreactivity
QVQLEESGGGLVQAGGSLRLSCAASGITFYYNDMGWYRQAPGKERELVAAISSGGTTNYADSVKGRFTISRDNAKNTFYLAMNSLKPEDTAVYYCATGYAEPEWDPFVSDYDYWGQGTQVTVSS | low polyreactivity
QVQLEESGGGLVQAGGSLRLSCAASGITIRIYAKGCYRQAPGKERELVAGISSSGSTNYADSVKGRFTISRDNAKNTVYLQMNSLKPEDTAVYYCAADAFYIFDYWGQGTQVTVSS | high polyreactivity
QVQLEESGGGLVQAGGSLRLSCAASGLIFVDNAMGGSRQATGKERALVASIDSGGSTNYADSVKGRFTISRDNAKNTFYLQMNSLKPEDTAVYYCSADWIYAPWYYQESVEYYYWGQGTQVTVSS | low polyreactivity
